Results taken from publication PMC11168072.
Values joined by “and” are separate entries in the source; they are usually repeats but may differ in a detail not shown here. Equal entries are not always repeated. Blank lines part the entries; values can stand above or below the substance they belong to.

What was measured:
[1] = biological target: DtpA, A-type dye-decolorizing peroxidase from Streptomyces lividans (Streptomyces lividans); experiment: AUC; sedimentation velocity, absorbance at 410 nm, 40,000 rpm, 20°C, 50 mM HEPES pH 7.0, 100 mM NaCl, protein 0.75-0.85 μM, c(S) model in SEDFIT
[2] = biological target: DtpAa, A-type dye-decolorizing peroxidase from Streptomyces lividans (Streptomyces lividans); experiment: as above
[3] = biological target: DtpB, B-type dye-decolorizing peroxidase from Streptomyces lividans (Streptomyces lividans); experiment: cryo-EM structure; single particle, Talos Arctica 200 kV, DtpB ~6 mg/mL with 8 mM CHAPSO, C1 symmetry, low resolution maps of quasi-hexamer (14.5 Å) and dodecamer (13.4 Å)
[4] = biological target: DtpB, B-type dye-decolorizing peroxidase from Streptomyces lividans (Streptomyces lividans); experiment: cryo-EM structure; single particle, Titan Krios 300 kV, DtpB ~6 mg/mL with 8 mM CHAPSO, D3 symmetry imposed, 3.02 Å map of the hexamer
[5] = biological target: DtpB, B-type dye-decolorizing peroxidase from Streptomyces lividans (Streptomyces lividans); experiment: AUC; sedimentation velocity, absorbance at 410 nm, 40,000 rpm, 20°C, 50 mM HEPES pH 7.0, 100 mM NaCl, protein 0.75-0.85 μM, c(S) model in SEDFIT

proportion of the sedimenting species (ratio), species 1, dimer [1]: 76
proportion of the sedimenting species (ratio), species 2, tetramer [1]: 13
stoichiometry N [1]: 2 and 4
Substance: DtpA, A-type dye-decolorizing peroxidase from Streptomyces lividans (enzyme)

stoichiometry N [2]: 2
Substance: DtpAa, A-type dye-decolorizing peroxidase from Streptomyces lividans (enzyme)

stoichiometry N [3]: 12
stoichiometry N [4]: 6
proportion of the sedimenting species (ratio), species 1, dimer [5]: 2.5
proportion of the sedimenting species (ratio), species 2, hexamer [5]: 82
proportion of the sedimenting species (ratio), species 3, dodecamer [5]: 10
Substance: DtpB, B-type dye-decolorizing peroxidase from Streptomyces lividans (enzyme)
